Laboratory results reported in paper PMC6321638 (2018).

Target: ALG-2 delta3-23 (Homo sapiens, UniProt O75340, Ca2+)
Test: ITC

ALG-2 delta3-23, sequence (O75340 3-23, stated change not applied): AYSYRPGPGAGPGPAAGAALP

Kd: 32.4 nM
B1: SOUL (protein)
chain: AEPLQPDPGAAEDAAAQAVETPGWKAPEDAGPQPGSYEIRHYGPAKWVSTSVESMDWDSAIQTGFTKLNSYIQGKNEKEMKIKMTAPVTSYVEPGSGPFSESTITISLYIPSEQQFDPPRPLESDVFIEDRAEMTVFVRSFDGFSSAQKNQEQLLTLASILREDGKVFDEKVYYTAGYNSPVKLLNRNNEVWLIQKNEPTKENE
